We go through one substance from patent publication US20190315886A1.

Experiment [1] deals with human thrombin with His tag (human) (UniProt P00734). The experiment is described as follows: Biacore; ratio of KD on pro-thrombin to KD on thrombin.
The target is the same in experiment [2]. The experiment is described as follows: Biacore; reference h1601-008. A general note: SPR reads the build-up and loss of mass on a sensor chip optically.
Experiment [3] has as its target human prothrombin with His tag (human) (UniProt P00734). As to the kind of experiment: Biacore; reference h1601-008.
Experiment [4] addresses human thrombin with His tag (human) (UniProt P00734). As to the kind of experiment: Biacore.
The target of experiment [5] is human prothrombin with His tag (human) (UniProt P00734). The experiment is described as follows: Biacore.

A word on the Kd: it is the concentration at which binding is half-saturated. Low readings indicate a tighter complex, high ones a looser complex. For the substance Ichorcumab (antibody), the Selective activity in experiment [1] came to 51. The Fold of Affinity relative to h1601-008 in experiment [2] was determined as 3 fold; in experiment [3], 0.6 fold. Further, the results for the Kd in experiment [4] and in experiment [5] were 0.00257 µM and 0.131 µM, respectively.
